US20020090382A1 (UNIVERSITY OF PITTSBURGH OF THE COMMONWEALTH SYSTEM OF …, published 2002)

Assays:
[1] = molecular target: T1, HveA(200t) (UniProt Q92956 39-200); assay: ELISA, peptide on coated HveA(200t), antiserum R11
T1 construct: Purified soluble receptor coated on ELISA plates; also called recombinant HveA; soluble gD receptor HveA
T1 sequence: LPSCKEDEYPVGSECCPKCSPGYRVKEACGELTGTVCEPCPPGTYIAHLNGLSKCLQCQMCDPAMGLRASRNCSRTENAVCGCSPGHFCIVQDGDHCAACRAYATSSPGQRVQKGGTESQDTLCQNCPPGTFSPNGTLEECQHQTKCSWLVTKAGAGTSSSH

[2] = molecular target: T2, HveC(346t) (UniProt Q15223 31-346); assay: ELISA, peptide on coated HveC(346t), antiserum R11
T2 construct: Purified soluble receptor coated on ELISA plates; also called recombinant HveC; soluble gD receptor HveC
T2 sequence: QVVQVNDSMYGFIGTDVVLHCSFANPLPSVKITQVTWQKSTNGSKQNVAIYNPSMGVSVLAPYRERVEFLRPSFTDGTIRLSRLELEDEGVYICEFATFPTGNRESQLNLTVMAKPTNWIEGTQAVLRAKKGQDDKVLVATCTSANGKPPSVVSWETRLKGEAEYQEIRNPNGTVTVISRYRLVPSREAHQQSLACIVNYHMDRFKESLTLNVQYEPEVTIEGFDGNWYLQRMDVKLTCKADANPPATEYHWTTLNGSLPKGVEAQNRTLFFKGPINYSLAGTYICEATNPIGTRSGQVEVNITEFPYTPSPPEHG

B1: Polypeptide A1 (peptide)
peptide: ASLKMADPNRFRGKDLPVLDQ
notes: synthetic peptide
Does B1 bind [1]?
Result: no binding (tested: between 1 µM and 1000 µM)

Does B1 bind [2]?
Result: no binding (tested: between 1 µM and 1000 µM)
